Assay results published in publication PMC3777412 (Nature communications, 2013).
Where no end group is shown, it is not given here. [ ]: non-standard residue; d: D form. The star is where a group is joined. Biotin = O=C1N[C@H]2[C@H](CS[C@H]2CCCCC(=O)*)N1; pY = N[C@@H](Cc1ccc(OP(=O)(O)O)cc1)C(=O)O

B1: pY542 peptide (peptide)
peptide: Biotin-ASASAKGHE[pY]TNIKYS
B2: pY580 peptide (peptide)
peptide: Biotin-ASASASARV[pY]ENVGLM

Biological target: Grb2, histidine-tagged, purified (UniProt P62993 1-217)
Sequence (P62993 whole entry): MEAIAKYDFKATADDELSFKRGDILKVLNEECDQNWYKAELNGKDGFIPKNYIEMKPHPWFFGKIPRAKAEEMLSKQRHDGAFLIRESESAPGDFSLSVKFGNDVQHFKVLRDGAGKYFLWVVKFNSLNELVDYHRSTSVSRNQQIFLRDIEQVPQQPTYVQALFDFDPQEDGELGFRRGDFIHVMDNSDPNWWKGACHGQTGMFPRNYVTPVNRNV
Assay: SPR

Binder	Kd
B1	118 ± 10.3 nM
B2	68.5 ± 8.7 nM
